For this experiment, the target named is djb11_human DNAJB11 (UniProt Q9UBS4).
Chain of djb11_human DNAJB11 (Q9UBS4 whole entry): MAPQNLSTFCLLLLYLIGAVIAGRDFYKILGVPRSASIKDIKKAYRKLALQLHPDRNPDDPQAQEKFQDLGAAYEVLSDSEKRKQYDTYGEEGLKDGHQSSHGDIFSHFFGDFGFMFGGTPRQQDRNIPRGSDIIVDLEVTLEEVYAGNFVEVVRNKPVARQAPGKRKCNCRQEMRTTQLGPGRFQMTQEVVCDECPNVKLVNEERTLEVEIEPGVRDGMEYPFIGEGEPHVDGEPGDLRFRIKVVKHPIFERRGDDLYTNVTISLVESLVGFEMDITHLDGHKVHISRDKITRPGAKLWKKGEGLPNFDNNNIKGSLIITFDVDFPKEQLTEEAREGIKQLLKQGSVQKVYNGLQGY

“Endoplasmic reticulum chaperone BiP (Mesocricetus auratus (Golden hamster)), P07823 R197E”: the “effect of a mutation on the interaction” value was “disrupting interaction”.

The values are drawn from IntAct's records for PubMed 18203820.
